From patent US20230257435A1, “Wound Healing Composition and Uses Thereof” (AGENCY FOR SCIENCE, TECHNOLOGY AND RESEARCH, priority 2020, published 2023)

Tests used:
Assay type in all cases: cell-based, human
MMP12 = MMP12 levels in HaCaT cells (Western blot / immunostaining)
Procedure: Tissue culture plates were coated with Col-T-gel (Fischer Scientific) of stiffness ranging from 0.8 KPa (soft) to 30 KPa (stiff) as per manufacturer recommendations and allowed to solidify for 40 min at 37° C. inside tissue culture incubators. Some experiments were performed with cells seeded on the poly-hydrogel plates of defined stiffness: 0.2 kPa and 16 kPa soft and hard polyhydrogels, respectively (CytoSoft, Advanced Biomatrix, Inc.,). The determination of stiffness of silicone substrates were done by the manufacturer as per previously published protocols. For certain experiments, indicated amounts of sAgrin was incorporated into the 0.8 KPa collagen gels before gelation process. Upon gelation, trypsinized cells or excised mouse skin explants were plated onto the gels of different stiffness either alone or containing sAgrin. The cells/tissues were incubated under standard culture condition with 500 μl recommended culture medium for the indicated days. The crossbow shaped micropatterns with fibronectin coated islands were generated by microlithography on a 19.5×19.5 mm coverslide from Cytoo, Inc., France. The micropatterns had surface areas of 800μ^2 or 1600μ^2, respectively. Fifty thousand cells after initial siRNA treatment was placed on the micropatterns for 4-6 h before processing them for immunofluorescence. For some experiments, 10 μg/ml sAgrin was added on the slides 18 h prior to the addition of cells.
Indicated cells post-manipulation were washed twice with cold Phosphate buffered saline (PBS) and lysed with cold 1% NP-40 lysis buffer supplemented with 1× protease inhibitor cocktail (Roche Applied Biosciences) for 15 mins at 4° C. The cell lysate was centrifuged at 13,000 rpm for 15 min. This was followed by protein estimation using Bradford reagent. Subsequently, […] of total protein was mixed with an equal volume of 2× Laemmli sample buffer and heated at 95° C. for 5 mins. This was followed by resolution with SDS-PAGE gel. The resolved proteins were transferred onto nitrocellulose membrane and blocked in 5% skimmed milk reconstituted in 1×PBS containing 0.1% Tween-20, and probed overnight with the respective primary antibody. The membrane was then washed with 1×PBS supplemented with 0.1% Tween-20: three times at 15 min intervals. This was followed by 1 h incubation in conjugated horseradish peroxidase HRP secondary antibody (Santa Cruz Biotechnology). […] The density of the various bands was quantified using the Image-J software.
Cells were cultured on eight-well chamber slides or coverslips over-night. […] The images were processed and analyzed by Zen blue software. […]

pMLC = experiment: Force transmission via ligand conjugated magnetic beads
Procedure: The ligands were conjugated to 4.5 μm epoxide paramagnetic beads (Dynabeads M-450 Epoxy, Thermo Fisher Scientific) according to the manufacturer's manual. Briefly, the beads were washed twice in 0.1 M sodium phosphate buffer, pH 7.4. Subsequently. 8×10^7 beads were conjugated to 20 μg sAgrin, BSA and FN per in 0.1 M sodium phosphate buffer at pH 7.4 for 16-18 h at 4° C. with gentle rotation throughout. The degree of protein conjugation to the beads was verified by a reducing SDS-PAGE gel analysis using a subset of ligand conjugated beads. The remaining beads were washed and subsequently stored in 0.1% BSA-phosphate buffered saline (PBS) pH 7.4 at 4° C. They were subsequently suspended in medium and added on the cells for 30 min at 37° C. After a brief wash with PBS to remove excess non-adherent beads, the cells were placed under a permanent neodymium magnet (J Magnetics, USA) at a distance of 6 mm apart for another 30 min that allowed a vertical tensile force in the magnitudes of ˜200 pN on the beads. The cells were then fixed in 4% paraformaldehyde, permeabilized and processed for immunofluorescence.

BJ and HaCaT cells = experiment: Transwell migration assay; settings: sAgrin 10 μg/ml as chemoattractant
Procedure: FIG. 5 are assays showing effects of Agrin knockdown on 2D migration of keratinocytes and dermal fibroblasts. (a) RT-PCR analysis for Agrin gene expression in BJ and HaCaT cells treated with either control or Agrin siRNA. Data presented as mean+/−s.d. These knockdown cells were subsequently used for transwell migration assays. Migration was analyzed for a batch of Agrin depleted cells in response to sAgrin (10 μg/ml) in the bottom chambers as a chemoattractant (third panels). Migrating were quantified using ImageJ and represented as mean+/−s.d. (n=3, Students ‘t’ test, p=0.0004, 0.0003, and 0.0005, respectively). Scale bar: 20 μm. (b) Control, Agrin depleted, and Agrin knockdown BJ or primary mouse dermal fibroblasts (DF) cells pre-treated with 10 μg/ml sAgrin for 18 h were subjected to scratch wound assays. Representative bright-field images showing relative migration are presented at the indicated time-points. The mean non-migrated area+/−s.d. was quantified using ImageJ (n=3, Students ‘t’ test, *p<0.05, **p<0.004, ***p<0.0005, ****p=0.000002, ****p<0.000001, respectively). Scale bar: 20 μm. A Western blot verifying the knockdown of Agrin in DF is also shown with GAPDH as loading control. […] Results are quantified as in panel (b) (n=3, Students ‘t’ test, ****p<0.000001, **p<0.005, *p<0.05, respectively, all other p values are represented in the panels). […]

B1: sAgrin: C-terminus recombinant Agrin fragment containing 8 amino acid 'Z8' insert and LG3 domain (SEQ ID NO: 7), His-tagged, expressed in E. coli (protein)
chain: DTLAFDGRTFVEYLNAVTESELANEIPVEKALQSNHFELSLRTEATQGLVLWSGKATERADYVALAIVDGHLQLSYNLGSQPVVLRSTVPVNTNRWLRVVAHREQREGSLQVGNEAPVTGSSPLGATQLDTDGALWLGGLPELPVGPALPKAYGTGFVGCLRDVVVGRHPLHLLEDAVTKPELRPCPTP
modifications: His tag
MMP12 levels on soft matrix, exposure time series (MMP12; 10 μg/ml sAgrin): increased MMP12 levels | MMP12 protein levels on soft substrates, concentration series (MMP12; 0.8 kPa, increasing sAgrin, 18 h): strongly stabilized MMP12 protein levels in a dose-dependent fashion | MMP12 and Agrin at the leading migrating front (MMP12; 6 h post-wound scratch, sAgrin 10 μg/ml): further heightened | MMP12 levels in Agrin knockdown cells on stiff ECM (MMP12; increasing sAgrin, 18 h, dose-dependent): restored their MMP12 levels | pMLC recruitment with increasing sAgrin coated beads (pMLC; 30 min post-wound scratch): greater pMLC recruitment at 30 min post-wound scratch in a dose-dependent fashion | pMLC intensity in MMP12 depleted cells after force transmission (pMLC; 30 min post-wounding): unable to rescue the reduced pMLC intensity | pMLC recruitment near beads in control cells with exogenous force (pMLC; 30 min post-wounding): further surged pMLC recruitment | pMLC recruitment upon force in Agrin depleted cells (confocal) (pMLC; 30 min post-wounding, compared to FN or BSA beads): enhanced pMLC recruitment upon force application | MMP12 recruitment in pMLC activated regions (pMLC; Agrin depleted cells, force transmission): effectively enhanced MMP12 recruitment in pMLC activated regions | increase of pMLC around the bead vicinity (pMLC; Agrin depleted cells, force with sAgrin beads 30 min): ~2 folds | activated integrin β1-Agrin localization (pMLC; control migrating keratinocytes, ligand beads, force): substantially increased activated integrin β1-Agrin localization | rescue of reduced pMLC in Agrin depleted cells by force through ligand beads (pMLC; siAgrin cells): only restored by force transduced by sAgrin | trans-well migration (rescue of Agrin knockdown) (BJ and HaCaT cells): in part, rescued
